Results reported in US20230357810A1, “NEOPINONE ISOMERASE AND METHODS OF USING” (Antheia, Inc., priority 2017, published 2023).

How the values were obtained:
[1] = test system: thebaine; assay: NISO-coupled T6ODM-COR-CODM assay with thebaine as substrate, LC-MS/MS; type: biochemical; conditions: CODM plus NISO vs without NISO, 100 µM thebaine, 30° C., 1 hr
[2] = test system: neopine formation in the presence of COR; assay: Neopine formation with PR10-8 mutant proteins, NISO or NISO mutants and COR (FIG. 13); type: biochemical
Description: Neopine formation in the presence of the mutant proteins and COR was assessed, and compared to neopine formation using COR and NISOΔ1, NISOΔ2, and NISOΔ3. In the absence of NISO, neopine constitutes about 25% of the reaction product. Neopine formation can be reduced to 5% or less in the presence of NISO. Consistent with the previous experiment, in the presence of NISOΔ1, NISOΔ2, or NISOΔ3 an increase in neopine is observed, relative to wildtype NISO. […] Thus the relatively modest sequence differences between Domains Δl, Δ2, Δ3, Δ4 of NISO and PR10-8 nevertheless are significant with respect to the ability to suppress neopine production in the presence of COR.

[3] = test system: codeinone and morphinone substrates; assay: COR-B assay alone or together with NISO, substrate conversion and products formed (FIG. 16); type: biochemical; conditions: 20 mins
Description: Assay mixtures containing purified recombinant COR-B (~0.1 µg) alone, or purified recombinant COR-B (~0.1 µg) together with purified recombinant NISO (0.196 µg) (1:4 molar ratio), Na-ascorbate cofactor, and 1 mM NADPH, were incubated for 20 mins using one of the following substrates: codeine, neopine, morphine, neopmorphine, codeinone and morphinone. The percentages substrate conversion and products formed were determined.

[4] = test system: Yeast strains with chromosomally integrated T6ODM; assay: Hydrocodone production in yeast strains with chromosomally integrated T6ODM (FIG. 14); type: cell-based
[5] = COR-B and NISO together vs COR-B alone

B1: NISO: neopinone isomerase polypeptide of Papaver somniferum, SEQ.ID NO: 2; recombinant, His6-tagged, from E. coli (protein, listed as Papaver somniferum)
chain: MDSVSAALVFHSSIYLCAMAHHGVSGLVGKIVTELEVNCNADEFYKILKRDEDVPRAVSDLFPPVKIAKGDGLVSGCIKEWDCVLDGKAMSGKEETTHNDETRTLRHRELEGDLMKDYKKFDSIIEVNPKPNGHGSIVTWSIEYEKMNEDSPAPFAYLASFHQNVVEVDSHLCLSE
modifications: His6 tag
notes: recombinant, His6-tagged, from E. coli
[1]
  codeine production: increases substantially
  morphine production: increases
  neopine production: reduced
[2]; about 25% in the absence of NISO
  neopine formation (share of the reaction product): ≤ 5%
[3]; [5]
  product codeine formed from codeinone substrate: substantial increase
  product morphine formed from morphinone substrate: substantial increase
[3]; COR-B plus NISO (1:4 molar ratio) vs COR-B alone
  codeinone substrate turnover increase: ~2 fold

B2: MorB: morphine reductase from Pseudomonas putida M10, SEQ.ID NO: 22, expressed in yeast (protein, listed as Papaver somniferum)
chain: MPDTSFSNPGLFTPLQLGSLSLPNRVIMAPLTRSRTPDSVPGRLQQIYYGQRASAGLIISEATNISPTARGYVYTPGIWTDAQEAGWKGVVEAVHAKGGRIALQLWHVGRVSHELVQPDGQQPVAPSALKAEGAECFVEFEDGTAGLHPTSTPRALETDEIPGIVEDYRQAAQRAKRAGFDMVEVHAANACLPNQFLATGTNRRTDQYGGSIENRARFPLEVVDAVAEVFGPERVGIRLTPFLELFGLTDDEPEAMAFYLAGELDRRGLAYLHFNEPDWIGGDITYPEGFREQMRQRFKGGLIYCGNYDAGRAQARLDDNTADAVAFGRPFIANPDLPERFRLGAALNEPDPSTFYGGAEVGYTDYPFLDNGHDRLG
[4]
  production of hydrocodone: trace amounts

B3: PR10-8: PR-polypeptide of Papaver somniferum similar to NISO, SEQ.ID NO: 38 (protein, listed as Papaver somniferum)
chain: MAHHGVSGLVGKLVTQLEVNCDADEFYKIWKHHEEVPKAVSHFFPAVKVVKGDGLVSGCIKEWHYILEGKAMSAMEETTHNDETRTLHHQVVEGEVMKDYKAIASIIQVNPNPNGHGSIVTWSIEYEKMNEDSPTPFAYLEFFHQNIIDMNSHLYVGSDSHLHVDE
[2]
  ability to reduce neopine production: unable to reduce neopine production
